According to patent publication US20090226372A1 (SANFORD BURNHAM MEDICAL RESEARCH INSTITUTE, published 2009):

Key:
[1] = biological target: T1, wild-type NRP-1 expressed on transiently transfected M21 melanoma cells (UniProt O14786 22-923); assay: phage incubated with M21 cells transiently transfected with NRP-1, immunostaining and confocal imaging
T1 construct: whole, on cells; the printed SKET at 346-349 fits human NRP-1; also called wild type NRP-1 cDNA in pcDNA3.1(+)

[2] = biological target: T2, triple mutant S346A-E348A-T349A NRP-1 expressed on transiently transfected M21 melanoma cells (UniProt O14786 22-923, limits assumed); assay: phage binding to transiently transfected M21 melanoma cells, titration
T2 construct: whole, on cells; The stated codon change SKET to AKAA gives T349A; also called Mutant NRP-1

T1 sequence (O14786 22-923 limits assumed): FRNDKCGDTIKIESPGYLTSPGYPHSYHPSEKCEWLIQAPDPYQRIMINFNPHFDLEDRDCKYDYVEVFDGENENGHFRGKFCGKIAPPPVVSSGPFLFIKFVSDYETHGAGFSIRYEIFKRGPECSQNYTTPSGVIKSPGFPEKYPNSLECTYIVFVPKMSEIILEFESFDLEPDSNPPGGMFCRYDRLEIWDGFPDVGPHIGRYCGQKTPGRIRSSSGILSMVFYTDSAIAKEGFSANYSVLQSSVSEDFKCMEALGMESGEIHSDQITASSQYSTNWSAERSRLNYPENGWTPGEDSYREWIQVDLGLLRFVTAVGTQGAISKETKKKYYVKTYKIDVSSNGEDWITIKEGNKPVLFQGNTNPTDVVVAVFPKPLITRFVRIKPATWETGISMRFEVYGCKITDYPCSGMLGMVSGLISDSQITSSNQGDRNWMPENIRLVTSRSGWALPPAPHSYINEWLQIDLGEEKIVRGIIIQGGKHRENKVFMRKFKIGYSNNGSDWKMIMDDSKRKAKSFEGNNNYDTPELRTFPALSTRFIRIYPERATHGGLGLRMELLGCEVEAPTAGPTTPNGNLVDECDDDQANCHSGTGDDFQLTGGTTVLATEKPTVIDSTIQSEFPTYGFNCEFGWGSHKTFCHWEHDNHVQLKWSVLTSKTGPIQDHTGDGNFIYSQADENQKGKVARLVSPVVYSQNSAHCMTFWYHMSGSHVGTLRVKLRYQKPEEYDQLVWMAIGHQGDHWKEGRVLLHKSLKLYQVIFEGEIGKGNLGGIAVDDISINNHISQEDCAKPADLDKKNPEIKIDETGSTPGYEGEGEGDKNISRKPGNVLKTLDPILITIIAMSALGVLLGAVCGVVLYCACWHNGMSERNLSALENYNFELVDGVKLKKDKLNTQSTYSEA

B1: T7 phage displaying RPARPARA (SEQ ID NO:3) (peptide)
chain: RPARPARA
notes: not shown: T7 bacteriophage major coat protein gp10 (T7-select display system); Limits
Q: Does B1 bind [1]?
A: no binding

B2: T7 phage displaying RPARPAR (SEQ ID NO:2) (peptide)
chain: RPARPAR
notes: also called RPARPAR phage; RPARPAR T7; not shown: T7 bacteriophage major coat protein gp10 (T7-select display system); Limits
Q: Does B2 bind [2]?
A: no binding
